Assay in all cases: co-immunoprecipitation with anti-Taz antibody from infected BMK cells, Western blot
On the technique in general: A western blot detects proteins with antibodies after separation by electrophoresis.

The target in experiment [1] is T1, polyoma virus middle T antigen, wild-type (murine polyoma virus).
T1 construct: also called mT

For experiment [2], the target named is T2, polyoma virus large T antigen, wild-type (strain PTA), full length (murine polyoma virus, strain PTA).
T2 construct: mature; also called normal large T antigen; WT large T antigen

The target in experiment [3] is T3, polyoma virus small T antigen, wild-type (murine polyoma virus).
T3 construct: also called sT

The source of these data is patent US20050013803A1 (published 2005).

T1 sequence (P0DOJ8 whole entry): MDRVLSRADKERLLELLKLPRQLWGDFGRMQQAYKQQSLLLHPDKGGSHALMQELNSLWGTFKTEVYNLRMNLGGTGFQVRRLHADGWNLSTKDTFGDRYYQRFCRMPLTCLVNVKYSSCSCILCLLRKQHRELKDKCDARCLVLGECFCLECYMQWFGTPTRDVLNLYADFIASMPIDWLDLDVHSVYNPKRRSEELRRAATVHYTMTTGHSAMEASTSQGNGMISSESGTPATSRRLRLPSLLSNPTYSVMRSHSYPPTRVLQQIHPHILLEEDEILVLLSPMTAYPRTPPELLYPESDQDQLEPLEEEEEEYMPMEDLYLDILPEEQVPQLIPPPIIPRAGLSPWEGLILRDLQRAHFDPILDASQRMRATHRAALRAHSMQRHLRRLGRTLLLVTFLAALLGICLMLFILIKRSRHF
T2 sequence (P0DOJ5 whole entry): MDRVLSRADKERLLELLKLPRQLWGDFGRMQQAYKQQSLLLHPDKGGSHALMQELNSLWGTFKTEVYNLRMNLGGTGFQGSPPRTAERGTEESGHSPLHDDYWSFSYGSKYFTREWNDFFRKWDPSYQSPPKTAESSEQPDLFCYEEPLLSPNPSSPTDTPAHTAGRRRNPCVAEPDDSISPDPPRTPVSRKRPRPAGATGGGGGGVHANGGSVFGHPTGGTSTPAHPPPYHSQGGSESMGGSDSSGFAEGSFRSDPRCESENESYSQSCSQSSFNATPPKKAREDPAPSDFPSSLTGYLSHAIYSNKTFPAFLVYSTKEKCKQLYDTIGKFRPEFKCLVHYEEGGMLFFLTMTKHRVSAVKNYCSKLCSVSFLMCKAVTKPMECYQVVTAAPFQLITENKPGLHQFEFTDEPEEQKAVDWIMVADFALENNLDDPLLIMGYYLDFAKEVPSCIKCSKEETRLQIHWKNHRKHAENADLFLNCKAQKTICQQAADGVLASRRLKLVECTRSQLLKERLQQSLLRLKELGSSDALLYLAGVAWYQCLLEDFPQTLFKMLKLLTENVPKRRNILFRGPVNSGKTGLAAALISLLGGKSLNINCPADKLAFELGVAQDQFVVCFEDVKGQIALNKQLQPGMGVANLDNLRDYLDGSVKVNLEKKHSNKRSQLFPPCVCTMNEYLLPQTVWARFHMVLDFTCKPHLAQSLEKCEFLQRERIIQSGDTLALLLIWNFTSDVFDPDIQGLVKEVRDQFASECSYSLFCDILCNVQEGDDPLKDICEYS
T3 sequence (P68834 whole entry): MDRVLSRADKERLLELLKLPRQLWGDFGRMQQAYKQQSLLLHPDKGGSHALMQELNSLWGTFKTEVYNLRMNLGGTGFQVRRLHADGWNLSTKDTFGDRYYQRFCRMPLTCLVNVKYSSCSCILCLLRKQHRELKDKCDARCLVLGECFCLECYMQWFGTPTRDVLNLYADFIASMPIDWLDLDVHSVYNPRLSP

B1: murine Taz (transcriptional co-activator with PDZ binding motif) (other, mouse, UniProt Q9EPK5 1-395, looked up)
chain: MNPSSVPHPLPPPGQQVIHVTQDLDTDLEALFNSVMNPKPSSWRKKILPESFFKEPDSGSHSRQSSTDSSGGHPGPRLAGGAQHVRSHSSPASLQLGTGAGAAGGPAQQHAHLRQQSYDVTDELPLPPGWEMTFTATGQRYFLNHIEKITTWQDPRKVMNQPLNHVNLHPSITSTSVPQRSMAVSQPNLAMNHQHQQVVATSLSPQNHPTQNQPTGLMSVPNALTTQQQQQQKLRLQRIQMERERIRMRQEELMRQEAALCRQLPMETETMAPVNTPAMSTDMRSVTNSSSDPFLNGGPYHSREQSTDSGLGLGCYSVPTTPEDFLSNMDEMDTGENSGQTPMTVNPQQTRFPDFLDCLPGTNVDLGTLESEDLIPLFNDVESALNKSEPFLTWL
notes: Endogenous protein immunoprecipitated from mouse cell extracts, or a library clone in yeast; also called mTaz
Regarding B1, the relative binding efficiency is 7 ratio large T: middle T: small T in experiment [1], 1 ratio large T: middle T: small T in experiment [2] and 100 ratio large T: middle T: small T in experiment [3].
